# According to paper PMC7934871 (JCI Insight, 2021):
# Non-standard residues stand in square brackets, D forms with d. No end group written: not given here. pY = N[C@@H](Cc1ccc(OP(=O)(O)O)cc1)C(=O)O
# Biological target: STAT3 (Homo sapiens, UniProt P40763)
# Assay: Binding of PS-Gp130 and STAT3, immunoprecipitation and Western blotting
# Parameters: endogenous in cells
# Settings: 1 μM, 4 hours prior to harvest
# Description: Figure 8 PS-Gp130 and PS-MYC blocking peptides efficiently internalize into tumor cells to exert their functions. (A) For 1 hour 1 μM of PS-conjugated MYC (PS-MYC) and Gp130 (PS-Gp130) were incubated with cancer cells. PS-scramble MYC (PS-SC-MYC) was used as a control for PS-MYC. The peptide uptake was visualized by confocal microscopy and quantified by flow cytometry. Data are representative of 3 independent experiments (n = 3). (B) Upper panel: The binding of PS-Gp130 and STAT3 was examined by immunoprecipitation and Western blotting. PO-Gp130 was used as a control. For 4 hours prior to harvest, 1 μM of peptide was incubated with cells. Lower panel: PS-Gp130 inhibits IL-6–induced phosphorylation of STAT3 and p44/42 but not EGF-mediated signaling. […] (C) Gene expression of STAT3 targets was examined by quantitative PCR after the treatment with 1 μM of PS-Gp130 with or without IL-6 stimulation as described above. […] (D) A total of 1 μM of PS-SC-MYC or PS-MYC was incubated with cells for 48 hours before the gene expression of MYC targets was examined by quantitative PCR. […]
# Whole cell lysates or tissue homogenates were prepared by using RIPA lysis buffer (50 mM Tris at pH 7.4, 150 mM NaCl, 1 mM EDTA, 0.5% NP-40, 1 mM NaF, 15% glycerol, and 20 mM β-glycerophosphate). […] Protein amounts were determined by BCA using a Thermo Fisher Scientific kit. […]
# Chain of STAT3 (P40763 whole entry, species assumed): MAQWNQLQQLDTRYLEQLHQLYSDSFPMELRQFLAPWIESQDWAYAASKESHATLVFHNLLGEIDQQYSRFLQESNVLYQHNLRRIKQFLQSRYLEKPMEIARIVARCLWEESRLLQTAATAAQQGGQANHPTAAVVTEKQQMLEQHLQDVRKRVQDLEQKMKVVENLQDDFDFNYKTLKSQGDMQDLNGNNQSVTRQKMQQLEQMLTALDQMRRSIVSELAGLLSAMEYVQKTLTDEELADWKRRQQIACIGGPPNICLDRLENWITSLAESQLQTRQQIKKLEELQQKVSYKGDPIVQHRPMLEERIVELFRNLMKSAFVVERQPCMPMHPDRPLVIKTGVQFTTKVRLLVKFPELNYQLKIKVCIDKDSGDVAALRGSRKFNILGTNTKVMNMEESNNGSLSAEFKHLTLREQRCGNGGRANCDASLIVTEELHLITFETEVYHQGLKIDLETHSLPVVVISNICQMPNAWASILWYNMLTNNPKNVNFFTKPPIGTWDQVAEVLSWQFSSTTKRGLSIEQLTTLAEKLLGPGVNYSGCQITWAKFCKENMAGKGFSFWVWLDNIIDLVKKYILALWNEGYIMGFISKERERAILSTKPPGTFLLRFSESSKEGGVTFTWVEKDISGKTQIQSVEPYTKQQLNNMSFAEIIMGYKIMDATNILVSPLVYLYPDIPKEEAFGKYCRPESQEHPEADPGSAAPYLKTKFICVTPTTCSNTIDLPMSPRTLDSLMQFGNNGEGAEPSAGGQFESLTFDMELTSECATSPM
substance,measurement,value
"PS-Gp130: PS-conjugated Gp130 peptide (amino acids 901–910) with phospho-Tyr905 (MPKS[pY]LPQTV; also: phosphorothioate oligonucleotide conjugate; UniProt P40189 901-910, looked up, fragment)",binding to STAT3,strongly bound
